Substrate in this series: CC(C)(O/N=C(\C(=O)N[C@@H]1C(=O)N2C(C(=O)[O-])=C(C[n+]3ccccc3)CS[C@H]12)c1csc(N)n1)C(=O)O
Nature of the series: Substrate activity at Enterobacter cloacae beta lactamase P99 expressed in Escherichia coli AS226-51 cells by UV spectrophotometric method.

The values below come from ChEMBL document CHEMBL3856203, “β-Lactamases: Why and How” (J Med Chem, 2016).

B1: Beta-lactamase (Enterobacter cloacae), P05364 (protein)
chain: MMRKSLCCALLLGISCSALATPVSEKQLAEVVANTITPLMKAQSVPGMAVAVIYQGKPHYYTFGKADIAANKPVTPQTLFELGSISKTFTGVLGGDAIARGEISLDDAVTRYWPQLTGKQWQGIRMLDLATYTAGGLPLQVPDEVTDNASLLRFYQNWQPQWKPGTTRLYANASIGLFGALAVKPSGMPYEQAMTTRVLKPLKLDHTWINVPKAEEAHYAWGYRDGKAVRVSPGMLDAQAYGVKTNVQDMANWVMANMAPENVADASLKQGIALAQSRYWRIGSMYQGLGWEMLNWPVEANTVVEGSDSKVALAPLPVAEVNPPAPPVKASWVHKTGSTGGFGSYVAFIPEKQIGIVMLANTSYPNPARVEAAYHILEALQ
As for B1, the kcat stood at 7 ×10⁻³ /s.
